Reference: publication PMC10803776, “Structure of the M. tuberculosis DnaK−GrpE complex reveals how key DnaK roles are controlled” (Nature Communications, 2024)
Ends that are not written are not given here.

How the values were obtained:
[1] = target: T1, Mycobacterium tuberculosis DnaK, wild type, full length (Mycobacterium tuberculosis, UniProt P9WMJ9 1-625); assay: fluorescence polarisation; direct binding of F-NR to DnaK in the presence of ADP or without nucleotide; settings: both partners purified
T1 construct: DnaK (Hsp70 chaperone) of Mycobacterium tuberculosis, full length; also called Mtb DnaK; WT DnaK

[2] = target: T2, Mycobacterium tuberculosis DnaK, full length, wild type (Mycobacterium tuberculosis, UniProt P9WMJ9 1-625); assay: ITC; settings: both partners purified
T2 construct: DnaK (Hsp70 chaperone) of Mycobacterium tuberculosis, full length; also called Mtb DnaK; WT DnaK

[3] = target: T3, Mycobacterium tuberculosis DnaK Mut-1 (Y106A, L107A) (Mycobacterium tuberculosis, UniProt P9WMJ9 1-625, Y106A | L107A); assay: ITC; settings: both partners purified
T3 construct: DnaK of Mycobacterium tuberculosis, full length, with two alanine substitutions in NBD subdomain IA

[4] = target: the molecule itself; assay: cryo-EM structure; DnaK 2 μM, DnaJ2 4 μM, GrpE 4 μM, telaprevir 200 μM in 25 mM Tris pH 8.0, 40 mM NaCl, 10 mM MgCl2; no nucleotide; 3.7 Å map
[5] = target: T1, Mycobacterium tuberculosis DnaK, wild …; assay: SEC-MALS; settings: both partners purified

B1: N-terminal fluorescein-labeled NR peptide (NRLLLTG) (peptide)
peptide: fluorescein-NRLLLTG
notes: model peptide substrate of DnaK; also called F-NR; fluorescently tagged NR; source: bought: PEPTIDE 2.0 (purity >95%)
binding result [1]: binds

B2: Mycobacterium tuberculosis GrpE, full length, wild type (natural protein)
chain: MTDGNQKPDGNSGEQVTVTDKRRIDPETGEVRHVPPGDMPGGTAAADAAHTEDKVAELTADLQRVQADFANYRKRALRDQQAAADRAKASVVSQLLGVLDDLERARKHGDLESGPLKSVADKLDSALTGLGLVAFGAEGEDFDPVLHEAVQHEGDGGQGSKPVIGTVMRQGYQLGEQVLRHALVGVVDTVVVDAAELESVDDGTAVADTAENDQADQGNSADTSGEQAESEPSGS
notes: GrpE (nucleotide exchange factor) of Mycobacterium tuberculosis, full length; also called Mtb GrpE; WT GrpE
Kd [2]: 240 nM | stoichiometry N [2]: 0.69 | Kd [3]: 1070 nM | stoichiometry N [3]: 0.13

B3: Mycobacterium tuberculosis GrpE, wild type, full length (natural protein)
chain: B2 chain
notes: GrpE (nucleotide exchange factor) of Mycobacterium tuberculosis, full length, 235 residues (C-terminal residues printed as aa 188-235); also called Mtb GrpE; WT GrpE
stoichiometry N [4]: 2 | stoichiometry N [5]: 2 GrpE per DnaK
